Article PMC10838290 (2024)

Target: GST-tagged ANKRD1 recombinant protein (Homo sapiens (Human), UniProt Q15327)
Experiment: GST pulldown with western blot

GST-tagged ANKRD1 recombinant protein, sequence (Q15327 whole entry): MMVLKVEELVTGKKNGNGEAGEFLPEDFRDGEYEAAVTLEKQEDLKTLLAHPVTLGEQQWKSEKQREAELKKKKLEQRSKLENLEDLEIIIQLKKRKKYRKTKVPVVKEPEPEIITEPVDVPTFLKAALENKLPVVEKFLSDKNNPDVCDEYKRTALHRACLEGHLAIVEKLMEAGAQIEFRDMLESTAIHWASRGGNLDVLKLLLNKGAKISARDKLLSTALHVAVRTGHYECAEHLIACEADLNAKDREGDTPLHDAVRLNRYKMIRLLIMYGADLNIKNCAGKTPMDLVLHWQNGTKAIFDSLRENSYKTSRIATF

B1: HIS-tagged JUN (truncated form 1-241aa) (protein)
chain: MTAKMETTFYDDALNASFLPSESGPYGYSNPKILKQSMTLNLADPVGSLKPHLRAKNSDLLTSPDVGLLKLASPELERLIIQSSNGHITTTPTPTQFLCPKNVTDEQEGFAEGFVRALAELHSQNTLPSVTSAAQPVNGAGMVAPAVASVAGGSGSGGFSASLHSEPPVYANLSNFNPGALSSGGGAPSYGAAGLAFPAQPQQQQQPPHHLPQQMPVQHPRLQALKEEPQTVPEMPGETPP
- binding result: no binding
